This note sets out measurements from PMC4749091 (The Journal of Experimental Medicine, 2016).

The test deals with T1, human CD112-Fc fusion protein (human, UniProt Q92692 32-360).
T1 sequence (looked up): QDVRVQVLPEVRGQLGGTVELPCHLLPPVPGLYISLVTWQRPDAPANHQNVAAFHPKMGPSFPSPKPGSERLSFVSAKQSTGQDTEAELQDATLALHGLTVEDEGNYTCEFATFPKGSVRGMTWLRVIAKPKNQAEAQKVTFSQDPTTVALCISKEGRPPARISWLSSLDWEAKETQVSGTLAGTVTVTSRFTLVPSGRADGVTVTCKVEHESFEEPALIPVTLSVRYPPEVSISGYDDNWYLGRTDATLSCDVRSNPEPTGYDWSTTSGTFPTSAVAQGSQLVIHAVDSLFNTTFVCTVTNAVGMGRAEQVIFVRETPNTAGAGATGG
Put plainly: competition by flow cytometry on protein-coated beads.

B1: human CD226-Fc fusion protein (Fc fusion, UniProt Q15762 19-254, looked up)
chain: EEVLWHTSVPFAENMSLECVYPSMGILTQVEWFKIGTQQDSIAIFSPTHGMVIRKPYAERVYFLNSTMASNNMTLFFRNASEDDVGYYSCSLYTYPQGTWQKVIQVVQSDSFEAAVPSNSHIVSEPGKNVTLTCQPQMTWPVQAVRWEKIQPRQIDLLTYCNLVHGRNFTSKFPRQIVSNCSHGRWSVIVIPDVTVSDSGLYRCYLQASAGENETFVMRLTVAEGKTDNQYTLFVA
For the molecule B1, the binding result is on record as “binds”.
